# Article PMC10191858, “DNA segment capture by Smc5/6 holocomplexes” (Nature Structural & Molecular Biology, 2023)
# T1: Smc5(G1054C), Smc5 with the engineered cysteine of the Smc5–Nse4 interface (S. cerevisiae, UniProt Q08204 1-1093, G1054C)
# T1 construct: Smc5, S. cerevisiae, subunit of the Smc5/6 hexamer; engineered cysteine G1054C for BMOE cross-linking to Nse4; Stood in the assay as a subunit of the purified hexamer (Smc5, Smc6, Nse1-4)
# T1 sequence (looked up): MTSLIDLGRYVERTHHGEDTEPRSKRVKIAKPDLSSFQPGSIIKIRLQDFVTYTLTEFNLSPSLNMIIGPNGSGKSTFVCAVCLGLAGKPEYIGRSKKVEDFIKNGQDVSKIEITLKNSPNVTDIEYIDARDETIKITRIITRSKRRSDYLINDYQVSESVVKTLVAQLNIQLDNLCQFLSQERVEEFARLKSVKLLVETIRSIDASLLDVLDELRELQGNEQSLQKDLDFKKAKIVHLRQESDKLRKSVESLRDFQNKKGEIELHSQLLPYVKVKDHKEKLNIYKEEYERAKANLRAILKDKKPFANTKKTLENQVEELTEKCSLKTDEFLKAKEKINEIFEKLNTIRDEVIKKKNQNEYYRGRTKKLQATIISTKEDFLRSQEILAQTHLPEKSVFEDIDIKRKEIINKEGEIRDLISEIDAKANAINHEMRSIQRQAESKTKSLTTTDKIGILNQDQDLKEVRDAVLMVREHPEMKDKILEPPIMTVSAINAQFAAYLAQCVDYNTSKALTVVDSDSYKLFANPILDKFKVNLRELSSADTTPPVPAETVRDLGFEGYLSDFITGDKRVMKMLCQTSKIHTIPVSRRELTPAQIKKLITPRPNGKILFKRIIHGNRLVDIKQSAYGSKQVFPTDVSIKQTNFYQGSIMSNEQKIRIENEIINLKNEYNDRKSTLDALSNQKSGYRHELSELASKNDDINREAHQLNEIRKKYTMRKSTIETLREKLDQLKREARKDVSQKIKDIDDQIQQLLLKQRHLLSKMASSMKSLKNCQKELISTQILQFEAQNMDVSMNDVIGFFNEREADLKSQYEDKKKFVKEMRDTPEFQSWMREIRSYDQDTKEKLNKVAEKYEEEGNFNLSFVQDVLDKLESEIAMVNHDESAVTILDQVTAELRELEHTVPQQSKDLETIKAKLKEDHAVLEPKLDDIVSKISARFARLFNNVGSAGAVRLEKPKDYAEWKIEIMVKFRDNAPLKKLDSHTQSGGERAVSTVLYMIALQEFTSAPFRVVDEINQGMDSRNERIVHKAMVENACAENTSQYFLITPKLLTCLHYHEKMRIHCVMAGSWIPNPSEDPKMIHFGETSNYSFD
# B1: Nse5/6 dimer (loader) (complex, S. cerevisiae)
# chain 1: MDGALINSVLYVSPRNGAHYFVELTEKHLLAFEMLNSMCLLENYDHVLLFLECQFGKSHNLAVIPFDIILVLFTLSTLSEYYKEPILRANDPYNTSRETLSRRALKLLQKYLAILKEFDSEQYNLYDLELLRCQFFLAIDTLTPKKQKWGFDRFRRTKSESGVTYRQNASVDPELDQAKTFKNPYRSYISCLEQRNTILGNRLLNLKLNEPGEFINMILWTLSNSLQESTPLFLSSHEIWMPLLEILIDLFSCRQDYFIQHEVAQNVSKSLFVQRLSESPLAVFFESLNTRNFANRFSEYVFLNCDYKLPSDNYATPVHPVYNGENTIVDTYIPTIKCSPLYKSQKSLALRRKLIGSCFKLLLRVPDGHRLITPRIVADDVIQGISRTLASFNDILQFKKFFMTENLSQESYFIPLLAEGTLSEILKDTQECVVILTLVENLSDGVSFCNEVIGLVKSKCFAFTEQCSQASYEEAVLNIEKCDVCLLVLLRYLLHLIGTEAILDAKEQLEMLHAIEKNDSGRRQWAKALNLGNDPPLLYPIVSQMFGVHDKSVIIE
# chain 2: MGSVNSSPNEEFETVPDSQISGFDSPLIPTSVGSYFRDDDDDEKVHPNFISDPENDSLNSDEEFSSLENSDLNLSGAKAESGDDFDPILKRTIISKRKAPSNNEDEEIVKTPRKLVNYVPLKIFNLGDSFDDTITTTVAKLQDLKKEILDSPRSNKSIVITSNTVAKSELQKSIKFSGSIPEIYLDVVTKETISDKYKDWHFISKNCHYEQLMDLEMKDTAYSFLFGSSRSQGKVPEFVHLKCPSITNLLVLFGVNQEKCNSLKINYEKKENSRYDNLCTIFPVNKMLKFLMYFYSDDDNDDVREFFLKAFICLILDRKVFNAMESDHRLCFKVLELFNEAHFINSYFEIVDKNDFFLHYRLLQIFPHLQSALLRRRFSEKQGRTETIQQNIIKEFNEFFDCKNYKNLLYFILTMYGSKFIPFGPKCQVTEYFKDCILDISNETTNDVEISILKGILNLFSKIR
# notes: Nse5, S. cerevisiae; a native cysteine of it cross-links off-target to Smc5(G1054C); Nse6, S. cerevisiae; also called Nse5/6 subcomplex; Nse5/6 complex
# Target: T1, Smc5(G1054C), Smc5 with the engineered …
# Experiment: cross-linking; site-specific BMOE cross-linking (1 mM, 45 s, stopped with 10 mM DTT) of engineered cysteine pairs in purified Smc5/6 hexamers at 0.5 uM; 10 mM Hepes-KOH pH 7.5, 150 mM KOAc, 2 mM MgCl2, 20% glycerol, RT; with or without Nse5/6 dimer (0.625 uM), 2 mM ATP, 5 nM plasmid DNA (25 kbp); SDS-PAGE and Coomassie staining, bands quantified
# Conditions: both partners purified
binder,measurement,value
B1,binding result,binds
